In patent publication US20240336926:
Like-named read-outs stand apart in the source and are kept apart here.

Legend:
[1] = tested on: K-RAS G12D G12D, P01116-2; settings: Nap-dU at all n positions; plate ELISA, buffer SB18, 37 C, R2 97.1
[2] = biological target: Human serum albumin (HSA) (Homo sapiens) (UniProt P02768); settings: Nap-dU at all n positions, plate ELISA, buffer SB18, 37 C

**Q.** Which Kd [1] does the source give for GCATAAGTCCGGATGGCAGCTTTATGC [AD008] here?
**A.** 287 nM

**Q.** “GACTAGCATAAGTCCGGATGGCAGCTTTATGCCG [AD006]” was tested. Which Kd ([2]; R2 75.9) did it give?
**A.** 939 nM

**Q.** For “GCATAAGTCCGGATGGCAGCTTTATGCCGACC [AD007]”, which Kd ([2]; R2 97.0) is on record?
**A.** 536 nM
